Reference: patent US20140162947A1

Assays:
Assay in all cases: cell-based or functional assay
CCR7 (mouse) = CCR7 (mouse) (UniProt P47774)
CXCR3 (mouse) = CXCR3 (mouse) (UniProt O88410)
CXCR4 (mouse) = CXCR4 (mouse) (UniProt P70658)
Sequence of UniProt P70658 (P70658 whole entry): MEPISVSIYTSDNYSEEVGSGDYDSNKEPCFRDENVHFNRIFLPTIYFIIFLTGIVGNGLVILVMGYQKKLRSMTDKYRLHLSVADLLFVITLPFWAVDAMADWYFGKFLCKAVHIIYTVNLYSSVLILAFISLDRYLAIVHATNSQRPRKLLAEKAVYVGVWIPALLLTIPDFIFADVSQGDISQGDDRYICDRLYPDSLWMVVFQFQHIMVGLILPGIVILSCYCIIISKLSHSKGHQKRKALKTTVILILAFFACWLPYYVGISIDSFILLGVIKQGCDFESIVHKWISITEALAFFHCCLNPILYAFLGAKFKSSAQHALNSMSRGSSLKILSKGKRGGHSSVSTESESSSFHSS

Sequence of UniProt O88410 (O88410 whole entry): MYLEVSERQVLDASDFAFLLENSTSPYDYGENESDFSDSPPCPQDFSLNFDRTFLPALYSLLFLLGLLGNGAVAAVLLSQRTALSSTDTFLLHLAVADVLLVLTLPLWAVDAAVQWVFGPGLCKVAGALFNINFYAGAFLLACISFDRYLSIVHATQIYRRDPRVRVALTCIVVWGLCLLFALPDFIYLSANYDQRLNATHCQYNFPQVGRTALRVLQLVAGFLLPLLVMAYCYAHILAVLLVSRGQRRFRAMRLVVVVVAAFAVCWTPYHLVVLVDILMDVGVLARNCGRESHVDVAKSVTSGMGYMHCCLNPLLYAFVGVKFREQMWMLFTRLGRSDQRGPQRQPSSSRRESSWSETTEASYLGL
Sequence of UniProt P47774 (P47774 25-378): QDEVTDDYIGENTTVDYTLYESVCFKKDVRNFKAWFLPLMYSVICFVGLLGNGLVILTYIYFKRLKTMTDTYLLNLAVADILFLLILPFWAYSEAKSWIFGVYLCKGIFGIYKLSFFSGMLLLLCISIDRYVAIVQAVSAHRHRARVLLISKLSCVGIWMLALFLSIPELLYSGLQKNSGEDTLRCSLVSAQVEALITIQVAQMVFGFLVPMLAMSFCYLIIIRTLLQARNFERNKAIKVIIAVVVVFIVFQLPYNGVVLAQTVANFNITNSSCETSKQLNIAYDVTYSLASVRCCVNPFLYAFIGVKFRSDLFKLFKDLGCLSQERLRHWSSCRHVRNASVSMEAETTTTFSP

CCL21 (ligand)
migration of WT GMP- and CMP-derived PACs in a transwell Boyden chamber, fold over BSA control (CCR7 (mouse)): 4 fold

CXCL10 (ligand)
migration of WT GMP- and CMP-derived PACs in a transwell Boyden chamber, fold over BSA control (CXCR3 (mouse)): 4 fold

SDF-1α (ligand)
migration of WT CMP-derived PACs in a transwell Boyden chamber, fold over BSA control (CXCR4 (mouse)): 23 fold | migration of WT GMP-derived PACs in a transwell Boyden chamber, fold over BSA control (CXCR4 (mouse)): 19 fold
